Assay results as given in article PMC7793593 (Science Advances, 2021).

B1: HAdV-F41 hexon protein (natural protein, human adenovirus F41 (strain Tak))
chain: MATPSMMPQWSYMHIAGQDASEYLSPGLVQFARATDTYFSLGNKFRNPTVAPTHDVTTDRSQRLTLRFVPVDREDTAYSYKVRFTLAVGDNRVLDMASTYFDIRGVLDRGPSFKPYSGTAYNSLAPKTAPNPCEWKDNNKIKVRGQAPFIGTNINKDNGIQIGTDTTNQPIYADKTYQPEPQVGQTQWNSEVGAAQKVAGRVLKDTTPMLPCYGSYAKPTNEKGGQASLITNGTDQTLTSDVNLQFFALPSTPNEPKAVLYAENVSIEAPDTHLVYKPDVAQGTISSADLLTQQAAPNRPNYIGFRDNFIGLMYYNSTGNMGVLAGQASQLNAVVDLQDRNTELSYQLMLDALGDRSRYFSMWNQAVDSYDPDVRIIENHGVEDELPNYCFPLGGSAATDTYSGIKANGQTWTADDNYADRGAEIESGNIFAMEINLAANLWRSFLYSNVALYLPDSYKITPDNITLPENKNTYAYMNGRVAVPSALDTYVNIGARWSPDPMDNVNPFNHHRNAGLRYRSMLLGNGRYVPFHIQVPQKFFAIKNLLLLPGSYTYEWNFRKDVNMILQSSLGNDLRVDGASVRFDSINLYANFFPMAHNTASTLEAMLRNDTNDQSFNDYLCAANMLYPIPSNATSVPISIPSRNWAAFRGWSFTRLKTKETPSLGSGFDPYFTYSGSVPYLDGTFYLNHTFKKVSIMFDSSVSWPGNDRLLTPNEFEIKRTVDGEGYNVAQCNMTKDWFLIQMLSHYNIGYQGFYVPESYKDRMYSFFRNFQPMSRQVVNTTTYKEYQNVTLPFQHNNSGFVGYMGPTMREGQAYPANYPYPLIGQTAVPSLTQKKFLCDRTMWRIPFSSNFMSMGALTDLGQNMLYANSAHALDMTFEVDPMDEPTLLYVLFEVFDVVRIHQPHRGVIEAVYLRTPFSAGNATT

How the values were obtained:
Test in all cases: cryo-EM structure
[1] = target: HAdV-F41 penton base protein, virion-bound (human adenovirus F41 (strain Tak))
HAdV-F41 hexon protein = target: B1
cryo-EM structure = target: the molecule itself

Molecule | stoichiometry N [1] | binding result (HAdV-F41 hexon protein) | stoichiometry N (cryo-EM structure)
HAdV-F41 penton base protein, virion-bound (natural protein) | 5 | – | –
HAdV-F41 capsid protein IX (natural protein, human adenovirus F41 (strain Tak), UniProt P32539 1-133, looked up) MSGSMEGNAVSFKGGVFSPYLTTRLPAWAGVRQNVMGSNVDGRPVAPANSATLTYATVGSSVDTAAAAAASAAASTARGMAADFGLYNQLAASRSLREEDALSVVLTRMEELSQQLQDLFAKVALLNPPANAS | – | binds | 3
B1 | – | – | 3
